The test addresses T1, 重组蛋白MDA5 (MDA5抗原蛋白) (Homo sapiens (Human), UniProt Q9BYX4 1-1025).
T1 construct: Recombinant MDA5 from a synthetic gene in pFastBac1 (EcoRI/XbaI); also called MDA5蛋白
T1 sequence: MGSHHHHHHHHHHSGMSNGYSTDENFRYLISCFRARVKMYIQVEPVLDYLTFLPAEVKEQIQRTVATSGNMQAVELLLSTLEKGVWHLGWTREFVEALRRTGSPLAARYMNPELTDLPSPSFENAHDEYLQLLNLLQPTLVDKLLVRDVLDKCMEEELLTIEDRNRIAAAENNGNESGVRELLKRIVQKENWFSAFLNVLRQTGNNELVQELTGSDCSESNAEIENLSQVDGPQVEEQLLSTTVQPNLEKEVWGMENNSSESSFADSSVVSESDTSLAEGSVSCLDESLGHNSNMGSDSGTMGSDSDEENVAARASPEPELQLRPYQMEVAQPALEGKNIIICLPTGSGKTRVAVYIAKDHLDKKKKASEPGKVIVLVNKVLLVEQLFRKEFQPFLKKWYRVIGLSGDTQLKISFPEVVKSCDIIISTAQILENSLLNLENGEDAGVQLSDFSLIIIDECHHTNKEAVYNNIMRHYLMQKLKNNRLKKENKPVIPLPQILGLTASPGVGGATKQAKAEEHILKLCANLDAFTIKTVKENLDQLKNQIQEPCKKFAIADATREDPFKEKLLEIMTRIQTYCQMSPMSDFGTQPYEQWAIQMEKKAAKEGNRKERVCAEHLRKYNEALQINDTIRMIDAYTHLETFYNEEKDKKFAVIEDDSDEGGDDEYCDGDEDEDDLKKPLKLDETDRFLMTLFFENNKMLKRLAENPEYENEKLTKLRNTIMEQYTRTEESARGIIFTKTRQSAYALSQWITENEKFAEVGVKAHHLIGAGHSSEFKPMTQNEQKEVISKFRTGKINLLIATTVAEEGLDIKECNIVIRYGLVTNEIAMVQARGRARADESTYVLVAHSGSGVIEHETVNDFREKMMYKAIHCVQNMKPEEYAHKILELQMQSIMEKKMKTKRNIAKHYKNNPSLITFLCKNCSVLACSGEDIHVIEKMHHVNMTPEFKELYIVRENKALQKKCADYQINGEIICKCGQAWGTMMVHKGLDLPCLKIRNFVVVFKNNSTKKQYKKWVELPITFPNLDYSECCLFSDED
Put plainly: ELISA, MDA5 coated 4 ug/mL, antibody dilution series, anti-human IgG-HRP.

B1: 76F-MDA5-R2P1-G5抗体 (antibody, human IgG1, kappa, V domains shown)
VH: QVQLVESGGGVVQPGRSLRLSCAASGFTFSSYAMHWVRQAPGKGLEWVAVISYDGSNKYYADSVKGRFTISRDNSKNTLYLQMNSLRAEDTAVYYCARHRRYAFDIWGQGTTVTVSS
VL: QAVLTQPASVSGSPGQSITISCTGTSSDVGGYNYVSWYQQHPGKAPKLMIYDVSKRPSGVSNRFSGSKSGNTASLTISGLQAEDEADYYCSSYVVSYTWVFGGGTKVTVLR
notes: The printed heavy and light chain entries appear to start with a leader peptide
For the molecule B1, the binding result was “binds”.

The values are drawn from patent publication CN116284371A (SUZHOU FANGKE BIOTECHNOLOGY CO LTD; SUZHOU INST OF SYSTEMS …, dated 2023).
